Earlier results in PMC12060137.

Molecular target: TfR1 (Homo sapiens) (UniProt P02786)
Sequence (P02786 89-760): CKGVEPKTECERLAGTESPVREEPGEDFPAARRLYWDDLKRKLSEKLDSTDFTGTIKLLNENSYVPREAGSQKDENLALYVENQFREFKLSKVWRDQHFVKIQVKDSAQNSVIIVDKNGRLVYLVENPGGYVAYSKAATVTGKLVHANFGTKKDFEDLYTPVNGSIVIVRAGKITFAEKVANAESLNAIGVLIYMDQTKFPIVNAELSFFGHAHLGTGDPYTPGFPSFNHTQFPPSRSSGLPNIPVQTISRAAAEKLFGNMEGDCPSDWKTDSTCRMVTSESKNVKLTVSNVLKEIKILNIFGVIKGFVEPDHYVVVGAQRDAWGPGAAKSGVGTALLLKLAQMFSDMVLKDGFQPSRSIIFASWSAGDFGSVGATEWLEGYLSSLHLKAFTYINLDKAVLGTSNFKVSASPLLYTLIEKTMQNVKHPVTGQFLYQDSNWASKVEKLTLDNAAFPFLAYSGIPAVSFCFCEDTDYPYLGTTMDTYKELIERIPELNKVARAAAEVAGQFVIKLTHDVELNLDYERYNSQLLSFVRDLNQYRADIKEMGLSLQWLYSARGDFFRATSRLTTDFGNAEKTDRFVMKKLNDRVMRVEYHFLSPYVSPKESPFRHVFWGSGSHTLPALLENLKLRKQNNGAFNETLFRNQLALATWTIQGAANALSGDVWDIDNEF

Chain of HFt-W4 ferritin nanoparticle (P02794 2-183): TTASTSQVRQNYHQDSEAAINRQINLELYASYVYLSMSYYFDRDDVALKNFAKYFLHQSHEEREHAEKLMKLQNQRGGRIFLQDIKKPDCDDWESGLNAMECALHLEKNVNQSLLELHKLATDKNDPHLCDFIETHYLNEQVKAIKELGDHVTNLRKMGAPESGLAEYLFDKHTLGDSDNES

Kd: 25 nM
Substance: HFt-W4 ferritin nanoparticle (from UniProt P02794)
